Assay [1] concerns the target envelope glycoproteins from HIV-1 strain JR-FL on NLluc+env- pseudotyped particles (HIV-1 JR-FL). In words: cell-based or functional assay.
Assay [2] has as its system CCR5+ cells. The conditions noted are these: pre-treatment of target cells; Farzan et al. 1999; cited from earlier work.
Assay [3] has as its target CCR5. In words: flow cytometry on L1.2-CCR5+ cells, no peptide (defined as 100%), PE-streptavidin.
Assay [4] relates to HIV-1. The conditions noted are these: by associating with CD4 or gp120; literature; cited from earlier work.

Compound CCR5 Nt peptide S-10/14 gave an inhibition of viral entry, luciferase-based single round of entry assay, HeLa-CD4+CCR5+ and U87MG-CD4+CCR5+ cells, peptide 100 µM in assay [1] of 50%. Consider `[Na+].[O-][Cl+2]([O-])[O-]` [sodium chlorate], for which the “Binding of a gp120/CD4 complex to CCR5+ cells” value in assay [2] was “decreased”. Consider “biotinylated gp120JR-FL/CD4-IgG2 complex”, for which the m.f.i. in assay [3] came to 40 m.f.i. Compound CCR5 Nt peptide S-3/10/14 returned an inhibition of viral entry, luciferase-based single round of entry assay, HeLa-CD4+CCR5+ and U87MG-CD4+CCR5+ cells, peptide 100 µM in assay [1] of 50%.

Turning to dextran sulfate, in assay [4], the “Inhibition of HIV-1 entry” value is “can inhibit HIV-1 entry”.

Values taken from US20030092632A1, “Sulfated CCR5 peptides for HIV-1 infection” (priority 2001, published 2003).
